Where a chain is given by its changes, count along the chain named. Numbers in names are those of the source.
B1: H4H7798N (antibody, from another filing, human IgG4, V domains shown)
VH: EVQLLESGGVLVQPGGSLRLSCAASGFTFSNFGMTWVRQAPGKGLEWVSGISGGGRDTYFADSVKGRFTISRDNSKNTLYLQMNSLKGEDTAVYYCVKWGNIYFDYWGQGTLVTVSS
VL: DIQMTQSPSSLSASVGDSITITCRASLSINTFLNWYQQKPGKAPNLLIYAASSLHGGVPSRFSGSGSGTDFTLTIRTLQPEDFATYYCQQSSNTPFTFGPGTVVDFRR
B2: 5C4 (antibody, V domains shown)
VH: QVQLVQSGAEVKKPGSSVKVSCKASGFTFTTYYISWVRQAPGQGLEYLGYINMGSGGTNYNEKFKGRVTITADKSTSTAYMELSSLRSEDTAVYYCAILGYFDYWGQGTMVTVSS
VL: DVVMTQSPLSLPVTLGQPASISCRSSQSLLDSDGQTYLYWFQQRPGQSPRRLIYLVSTLGSGVPDRFSGSGSGTDFTLKISRVEAEDVGVYYCMQLTHEPYTFGQGTKLEIK
B3: hPD1.29H5_A9P_I28T_T31S_L4 (antibody, V domains shown)
VH: EVQLVQSGPEVKKPGASVKVSCKASGYTFTSYYIHWVKQAPGKGLEWIGWIFPGDVSTQYNEKFQDKATITVDKSASTAYMQLSSLRSEDTAVYYCTREAYDYAVYWGQGTLVTVSS
VL: DIQMTQAPSSLSASVGDRVTITCKASQNVDTNVAWFQQKPGKAPKSLIFSASYRYSGVPSRFSGSGSGTDFTLTISSLQPEDFATYYCQQYNNYPFTFGGGTKLEIK
notes: Mutant of hPD1.29H5L4 (human IgG4 S241P kappa format of the parent)
B4: hPD1.29H5_K12V_L4 (antibody, V domains shown)
VH: B3 VH with P9A, K12V, T28I, S31T
VL: B3 VL
notes: as for B3
B5: hPD1.29H5_I28D_L4 (antibody, V domains shown)
VH: B3 VH with P9A, T28D, S31T
VL: B3 VL
notes: as for B3
B6: hPD1.29H5_Y32D_L4 (antibody, V domains shown)
VH: B3 VH with P9A, T28I, S31T, Y32D
VL: B3 VL
notes: IgG4 S241P kappa format of the parent
B7: hPD1.29H5_I28D_T31D_L4 (antibody, V domains shown)
VH: B3 VH with P9A, T28D, S31D
VL: B3 VL
notes: as for B3
B8: hPD1.29H5_A9P_K12V_L4 (antibody, V domains shown)
VH: B3 VH with K12V, T28I, S31T
VL: B3 VL
notes: as for B3
B9: hPD1.29H5_K12V_I28T_T31S_L4 (antibody, V domains shown)
VH: B3 VH with P9A, K12V
VL: B3 VL
notes: as for B3
B10: hPD1.29H5_T30D_L4 (antibody, V domains shown)
VH: B3 VH with P9A, T28I, T30D, S31T
VL: B3 VL
notes: as for B3
B11: hPD1.29H5_I28D_T30D_L4 (antibody, V domains shown)
VH: B3 VH with P9A, T28D, T30D, S31T
VL: B3 VL
notes: as for B3
B12: hPD1.29H5_A9P_K12V_I28T_T31S_L4 (antibody, V domains shown)
VH: B3 VH with K12V
VL: B3 VL
notes: as for B3
B13: hPD1.29H5_I28T_T31S_L4 (antibody, V domains shown)
VH: B3 VH with P9A
VL: B3 VL
notes: as for B3
B14: hPD1.29H5_A9P_L4 (antibody, V domains shown)
VH: B3 VH with T28I, S31T
VL: B3 VL
notes: as for B3
B15: hPD1.29H5_T31D_L4 (antibody, V domains shown)
VH: B3 VH with P9A, T28I, S31D
VL: B3 VL
notes: as for B3
B16: hPD1.29H5_I28D_Y32D_L4 (antibody, V domains shown)
VH: B3 VH with P9A, T28D, S31T, Y32D
VL: B3 VL
notes: as for B6

The binders below were run against Human PD-1 (Swiss-Prot entry Q15116), full length, on cells (human) (UniProt Q15116) (assay: not given).
Sequence of Human PD-1 (Swiss-Prot entry Q15116), full length, on cells (human) (Q15116 21-288): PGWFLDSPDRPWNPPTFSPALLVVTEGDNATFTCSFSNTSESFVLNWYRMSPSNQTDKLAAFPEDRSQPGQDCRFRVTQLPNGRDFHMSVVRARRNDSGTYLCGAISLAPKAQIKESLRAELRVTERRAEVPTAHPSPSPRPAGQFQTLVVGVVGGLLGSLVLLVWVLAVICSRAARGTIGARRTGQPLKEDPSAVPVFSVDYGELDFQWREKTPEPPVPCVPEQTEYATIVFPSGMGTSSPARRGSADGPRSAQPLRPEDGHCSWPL

| IC50; NFAT-luciferase signal (RLU) of Jurkat cells expressing human PD-1, with CHO cells expressing hPD-L1 [nM] | Binder |
| --- | --- |
| 7.27 | B1 |

The binders below were run against Human PD-1 (Swiss-Prot entry Q15116), full length, on cells (human) (UniProt Q15116) (assay: CELISA on CHO-K1.hPDCD1 cells).

| EC50 [nM] | Binder |
| --- | --- |
| 0.1 | B1 |

The binders below were run against T1, Human PD-1 (Swiss-Prot entry Q15116), full length, on cells (human, UniProt Q15116 21-288) (assay: CELISA on CHO-K1.hPDCD1 cells).
T1 construct: Full length open reading frame of hPD-1 stably expressed on CHO-K1 cells; also endogenous PD-1 on CD3/CD28-stimulated human CD3+ T cells and PD-1 on transfected Jurkat cells; also called hPD-1; hPDCD1
T1 sequence (Q15116 21-288): as above
Description: (§1) To further characterize these mutant hPD-1 antibodies they were tested for binding to hPD-1 in CELISA format using CHO-K1 cells (American Type Culture Collection, Manassas, Va.), stably transfected with cDNA encoding the full length open reading frame of hPDCD1 (hPD-1), subcloned into the pCI-neo vector (Promega). Parental CHO-K1 or CHO-K1.hPDCD1 cells were seeded in culture medium (DMEM-F12 (Gibco) with 10% Fetal Bovine Serum (Hyclone) and Pen/Strep (Gibco)) in tissue culture plates and incubated for 48 hours at 37° C. Subsequently culture medium was removed and cells were incubated for 1 hour at 37° C. with the mutant hPD-1 antibodies (10 μg/ml (=66 nM) and dilutions thereof). Next, cells were washed with Phosphate-Buffered Saline/0.05% Tween (PBST) and incubated for 1 hour at 37° C. with Goat-anti-human IgG-HRP (Southern Biotech). Subsequently, cells were washed 3 times with PBST and anti-hPD1 immunoreactivity was visualized with 100 al TMB Stabilized Chromagen (Invitrogen). Reactions were stopped with 100 al 0.5 M H2SO4 and absorbances were read at 450 and 610 nm. […] Blockade of hPD-L1 binding by the mutant hPD-1 antibodies was tested in CELISA format. […] Reactions were stopped with 100 al 0.5 M H2SO4 and absorbances were read at 450 and 610 nm. Calculated IC50 values in Table 12 for the blockade of hPD-L1 represent the concentration at which half of the inhibition is observed.

| EC50 [nM] | Binder |
| --- | --- |
| 0.08 | B2 |

Target: T1, Human PD-1 (Swiss-Prot entry Q15116), …
Experiment: CELISA on CHO-K1.hPDCD1 cells
Remark: another data set of the same source
Description: as §1, with “format. Parental CHO-K1 or CHO-K1.hPDCD1 cells were seeded in tissue culture plates and incubated for 72 hours at 37° C. in culture medium. Subsequently culture medium was removed and cells were incubated for 1 hour with the mutant hPD-1 antibodies (10 μg/ml (=66 nM) and dilutions thereof) at 37° C. […] Cells were then washed three times with PBST followed by addition of Streptavidin-HRP conjugate on the cells, which was incubated for 1 hour at 37° C.” for “format.”

| EC50 [nM] | Binder |
| --- | --- |
| 0.3 | B3 |
| 0.4 | B4 |
| 0.3 | B5 |
| 0.3 | B6 |
| 0.4 | B7 |
| 0.4 | B8 |
| 0.3 | B9 |
| 0.3 | B10 |
| 0.4 | B11 |
| 0.3 | B12 |
| 0.3 | B13 |
| 0.4 | B14 |
| 0.4 | B15 |
| 0.4 | B16 |

The binders below were run against T1, Human PD-1 (Swiss-Prot entry Q15116), … (assay: cell-based or functional assay).

| IC50; NFAT-luciferase signal (RLU) of Jurkat cells expressing human PD-1, with CHO cells expressing hPD-L1 [nM] | Binder |
| --- | --- |
| 5.79 | B2 |

These binders were tested against Human PD-1 (Swiss-Prot entry Q15116), full length, on cells (human) (UniProt Q15116) (assay: CELISA on CHO-K1.hPDCD1 cells; blocking of biotinylated hPD-L1 Fc).

| IC50 [nM] | Binder |
| --- | --- |
| 0.45 | B1 |

Each binder was assayed against Human PD-1 (Swiss-Prot entry Q15116), full length, on cells (human) (UniProt Q15116) (assay: CELISA on CHO-K1.hPDCD1 cells; blocking of biotinylated hPD-L2 Fc).

| IC50 [nM] | Binder |
| --- | --- |
| 0.57 | B1 |

These binders were tested against T1, Human PD-1 (Swiss-Prot entry Q15116), … (assay: CELISA on CHO-K1.hPDCD1 cells; blocking of biotinylated hPD-L1 Fc).
Description: as §1

| IC50 [nM] | Binder |
| --- | --- |
| 0.49 | B2 |

Each binder was assayed against T1, Human PD-1 (Swiss-Prot entry Q15116), … (assay: CELISA on CHO-K1.hPDCD1 cells; blocking of biotinylated hPD-L2 Fc).
Description: Parental CHO-K1 or CHO-K1.hPDCD1 cells were seeded in tissue culture plates and incubated for 72 hours at 37° C. in culture medium. […] Cells were then washed three times with PBST followed by addition of Streptavidin-HRP conjugate on the cells, which was incubated for 1 hour at 37° C. […] Reactions were stopped with 100 al 0.5 M H₂SO₄ and absorbances were read at 450 and 610 nm. […] Calculated IC50 values represent the concentration at which half of the inhibition is observed.

| IC50 [nM] | Binder |
| --- | --- |
| 0.58 | B2 |

Target: T1, Human PD-1 (Swiss-Prot entry Q15116), …
Experiment: CELISA on CHO-K1.hPDCD1 cells; blocking of biotinylated hPD-L1 Fc
Remark: another data set of the same source
Description: as §1, with “format. Parental CHO-K1 or CHO-K1.hPDCD1 cells were seeded in tissue culture plates and incubated for 72 hours at 37° C. in culture medium. Subsequently culture medium was removed and cells were incubated for 1 hour with the mutant hPD-1 antibodies (10 μg/ml (=66 nM) and dilutions thereof) at 37° C. […] Cells were then washed three times with PBST followed by addition of Streptavidin-HRP conjugate on the cells, which was incubated for 1 hour at 37° C.” for “format.”

| IC50 [nM] | Binder |
| --- | --- |
| 1.2 | B3 |
| 1.4 | B4 |
| 1.6 | B5 |
| 1.4 | B6 |
| 1.4 | B7 |
| 1.3 | B8 |
| 1.2 | B9 |
| 1.6 | B10 |
| 1.6 | B11 |
| 1.2 | B12 |
| 1.1 | B13 |
| 1.4 | B14 |
| 1.7 | B15 |
| 1.3 | B16 |

The binders below were run against T2, hPD-1/Fc fusion protein (R&D Systems) (human, UniProt Q15116 25-167) (assay: BLI (Octet RED96), hPD-1/Fc amine-coupled, IgG in solution, 1:1 global fit).
T2 construct: Bought reagent; also called Recombinant hPD-1/Fc; not shown: Fc part of the bought fusion protein
T2 sequence (Q15116 25-167 limits assumed): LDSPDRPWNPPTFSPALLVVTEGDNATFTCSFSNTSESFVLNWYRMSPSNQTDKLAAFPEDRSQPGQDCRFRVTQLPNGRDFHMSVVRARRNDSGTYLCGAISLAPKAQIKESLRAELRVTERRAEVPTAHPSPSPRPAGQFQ
Description: This assay was, performed by coupling hPD-1/Fc fusion protein (R&D Systems) to amine-reactive second generation biosensors (Fortebio) using standard amine chemistry. […] Amine-reactive biosensors were pre-wet by immersing them in wells containing 0.1M MES pH=5.5 for 10 minutes. The biosensors were then activated using a 0.1M NHS/0.4M EDC mixture for 5 minutes. hPD-1/Fc fusion protein was coupled by immersing the biosensors in a solution of 12 ug/mL hPD-1/Fc in 0.1 M MES for 7.5 minutes. The biosensor surface was quenched using a solution of 1M ethanolamine for 5 minutes. Biosensors were equilibrated in Octet kinetics buffer (ForteBio) for 5 minutes. […] Dissociation was measured after transfer of the biosensors into kinetics buffer and monitoring of the interferometry signal for 45 minutes. The assay was run with a plate temperature of 30° C. The observed on and off rates (kobs and kd) were fit using a 1:1 binding global fit model comprising all concentrations tested, and the equilibrium binding constant KD was calculated.

| Kd [nM] | koff [s⁻¹] | kon [M⁻¹ s⁻¹] | Binder |
| --- | --- | --- | --- |
| 0.014 | 2.9e-05 | 2.1e+06 | B2 |
| 0.011 | 1.2e-05 | 1.1e+06 | B1 |

The binders below were run against T2, hPD-1/Fc fusion protein (R&D Systems) (assay: BLI competition: second antibody on hPD-1/Fc held by immobilised hPD1.29H5L4 (competitor: hPD1.29H5L4)).

| Binding (nm) | Binder |
| --- | --- |
| 0.014 | B1 |

Reference: patent US20180030137A1 (ADURO BIOTECH HOLDINGS EUROPE B V, published 2018)
